Results reported in patent US20170189529A1.

Key:
[1] = biological target: recombinant HA of influenza A H1 A/California/09 (influenza A virus H1 A/California/09); experiment: recombinant HA ELISA (AttoPhos fluorescence, mean of triplicates)
[2] = biological target: recombinant HA of influenza A H3 A/Sydney/97 (influenza A virus H3 A/Sydney/97); experiment: as above
[3] = biological target: hemagglutinin (HA) of influenza B virus B/Malaysia (Victoria lineage) (influenza B virus B/Malaysia/04 (Victoria clade)); experiment: ForteBio Octet; antigen on the sensor, varying antibody concentrations
[4] = biological target: hemagglutinin (HA) of influenza B virus B/Florida (Yamagata lineage) (influenza B virus B/Florida/06 (Yamagata clade)); experiment: as above
[5] = biological target: H5 Vietnam/1203/2004 HA trimer (influenza A virus H5 Vietnam/1203/2004); experiment: kinetic binding to HA trimer (instrument not stated)
[6] = biological target: H5 Vietnam/1194/2004 HA monomer (influenza A virus H5 Vietnam/1194/2004); experiment: kinetic binding to HA monomer (instrument not stated)
[7] = biological target: H7 Netherlands/219/03 HA monomer (influenza A virus H7 Netherlands/219/03); experiment: as above
[8] = biological target: H9 HongKong/1073/99 HA monomer (influenza A virus H9 HongKong/1073/99); experiment: as above
[9] = biological target: H7 Netherlands/219/03 HA trimer (influenza A virus H7 Netherlands/219/03); experiment: kinetic binding to HA trimer (instrument not stated)
[10] = biological target: H3 Perth/16/2009 HA monomer (influenza A virus H3 Perth/16/2009); experiment: kinetic binding to HA monomer (instrument not stated)

B1: TRL845 (antibody, V domains shown)
VH: QVQLVQSGGDLVQPGGSLRLSCAASGFTFSRYSMNWVRQAPGMGLEWVAYISDTSRTIYYADSVKGRFTISRDNAKNSLYLQMKSLRDEDTAVYYCARDPDTPFVRAFDSWGQGTLVTVSS
VL: DIVLTQSPSFLSASVGDRVTITCRASQLISSYFAWYQQKPGKPPKLLIYAASTLQSGVPSRFSGSGSGTQFSLTISSLQPEDFATYYCQQLNSYPPITFGQGTRLEIKR
For B1, the fold reactivity over background (fold over background) [1] was 1.4 and the fold reactivity over background (fold over background) [2] was 1.1.

B2: TRL832 (antibody, V domains shown)
VH: QVQLVESGPGLMKPSETLSLTCTVSGGSVSNYYWSWIRQPPGKGLEWIGYVFYSGSSNYNPSLNNPSLKSRVTISIDTSNNQFSLKLSSVTAADTAVYYCARGRVNSGYDWGPNFDSWGQGALVTVSS
VL: DIVLTQAPSVSVSPGQTASITCSGDRLGEKFASWYQQKPGQSPVLVIYEDSKRPSGIPDRFSGSNSGNTATLTISGTQIMDEGDFFCQAWDSSTVVFGGGTKLTVLG
Binder B2 has a fold reactivity over background (fold over background) [1] of 1.1 and a fold reactivity over background (fold over background) [2] of 1.1.

B3: TRL835 (antibody, V domains shown)
VH: QVQLVQSGAEVRKPGESLRISCRGSGYNFPKYWIGWVRQMPGKGLEWMGMIYPGDSDVRYNPSFQGQVTISADESINTAYLQWSSLRTSDTARYYCARHLGQQLVSNTYYYYGMDVWGQGTTVTVSS
VL: DIVLTQSPLSLPVTPGEPASISCRSSQSLLDSNGYNYLDWYLQKPGQSPQLLIYLASYRAPGVPDRFSGSGSGTDFTLKISRVEAEDVGLYYCMQALQTPPMYTFGQGTKLEIKR
For B3, the Kd [3] was 2.3 nM and the Kd [4] was 0.6 nM.

B4: TRL854 (antibody, V domains shown)
VH: QVQLVESGAEVKKPGASVRVSCKGSGYTFTAYHMHWVRQAPGQGFEWVGWINPNSGATYYTSTFEGRVTMTRDTSITTAYMELSSLRSDDTAVYYCATDIVVERDASLGGFNSYGMDVWGQGTTVTVSS
VL: DIEMTQSPLSLPVTPGEPASISCRSSQSLLHSNGYNHLAWYLQKPGRSPHLLIYLASTRASGVPDRFSGSGSGTDFTLKISRVEAEDVGIYYCMQSLQTSITFGQGTRLEIKR
Work on B4 yielded a fold reactivity over background (fold over background) [1] of 1.2 and a fold reactivity over background (fold over background) [2] of 1.3.

B5: TRL837 (antibody, V domains shown)
VH: QVQLVQSGAEVKKPGSSVTVSCKTSGHTFISYAISWLRQAPGQGLEWMGGIVPIFGTVNYTQKFQGRLTITADESTSTAYMDLSRLTFEDTAIYFCAREAGYHSSFSGVYFDYWGQGTLLTVSS
VL: DIVMTQSPGTLSLSPGERATLYCRASQSVRSGYLAWYQHKPGQAPLLLFYDASGRATGIPDRFSGSGSGTDFTLTISRLEPEDFAVYYCLQYGSSPRTFGQGTKVEIKR
For B5, the Kd [3] was 1 nM and the Kd [4] was 0.3 nM.

B6: TRL856 (antibody, V domains shown)
VH: QVQLVESGGGLVQPGGSLRLSCAASGFTFSDYWMVWVRQAPGKGLVWVSRISSDGSTTSYADSVKGPFTISRDNAKNTLYLQMNSLRAEDTAVYYCARVATPYYYESGFDYWGQGALVTVSS
VL: DIVLTQSPSVSVAPGQTARITCGGNDIGSKSVHWYQQKPGQAPVLVVFDDRDRPSGIPERFSGSNSGNTATLTISRVEAGDEADYYCQVWDITSDLVVFGGGTKLTVVG
B6 was tested, and the fold reactivity over background (fold over background) [1] was 1.2 and the fold reactivity over background (fold over background) [2] was 1.3.

B7: TRL813 (antibody, V domains shown)
VH: QVQLVESGGGLVQPGGSLRLSCAASGFIFGDFAIHWVRQASGKGLEWVARIRSGLNRFETAYAASVEGRLTISRDDSKSMAYLQMNNVKAEDTAVYLCTYLVGAVGFQHWGQGTLVTVSS
VL: DIVMTQSPSTLSASVGDRVTITCRASQTIYRWLAWYQQKPGKAPKVLIYKASTLESGVPSRFSGSGSGTEFTLAISSLQPDDFATYYCQQYNSFPYRFGQGTKVEIKR
B7 was tested, and the fold reactivity over background (fold over background) [1] was 1.6 and the fold reactivity over background (fold over background) [2] was 1.1.

B8: TRL053 (antibody, V domains shown)
VH: QVQLVQSGAEVRKPGSSVKVSCKVSGGIIRKYAINWVRQAPGQGLEWMGGIIAIFNTANYAQKFQGRVTITADESTSTVYMELSSLRSEDTALYYCARGMNYYSDYFDYWGQGSLVTVSP
VL: EIVLTQSPGTLSLSPGERATLSCRASQSVRSNNLAWYQHKPGQAPRLLIFGASSRATGIPDRFSGSGSGTDFTLTISRLEPEDFAVYYCQQYGSSPALTFGGGTKVEIKR
B8 gave a Kd [5] of 0.5 nM, a koff [5] of 4.5e-05 s⁻¹ and a kon [5] of 92000 M⁻¹ s⁻¹. The Kd [6] was 0.5 nM, the koff [6] was 1.9e-05 s⁻¹ and the kon [6] was 38000 M⁻¹ s⁻¹. For the same binder, the Kd [7] was 1.2 nM, the koff [7] was 6.7e-05 s⁻¹ and the kon [7] was 55000 M⁻¹ s⁻¹. It also gave a Kd [8] of 0.2 nM, a koff [8] of 1.6e-05 s⁻¹ and a kon [8] of 98000 M⁻¹ s⁻¹. The fold reactivity over background (fold over background) [1] was 25.6 and the fold reactivity over background (fold over background) [2] was 1.

B9: TRL784 (antibody, V domains shown)
VH: QVQLVQSGPELKKPGSSVKLSCMATGGTFINYAFSWVRQAPGQGLEWLGGIIPVYGTSNHVEKLQGRVTITADASTNTAYMELSGLRFDDTAVYFCAASTATSGTYYAMRPFDFWGQGTLVSVSS
VL: DIELTQDPSVSVAPGQTARIPCVRFNMGPTSVHWYQQKPGQAPVLVVYDDSDRPSGIPERFSGSNSGDSATLTISRVEAGDEADYYCQVWDMSSDRRVFGGGTTLTVLG
B9 showed a Kd [3] of 7 nM and a Kd [4] of 0.7 nM.

B10: TRL833 (antibody, V domains shown)
VH: QVQLLESGPGLVKPSQTLLLTCTVSGASISTGGNYWSWIRQHPGKDLEWIGYIFYSGTTKYNPSVDNPSLKSRVTMSVDTSENQFSLKLSSVTAADTAVYFCARGSPNSGYDWGPHFDYWGQGTLVTVSS
VL: DIELTQSPSVSVSPGQTASITCSGDKLGDKFVCWYQQKAGQSPIVVIYQDDKRPSGIPERFSGSNSGNTATLTISGTQAMDEADYFCQAWDSTTVVFGGGTKLTVLG
For B10, the Kd [3] was 0.2 nM and the Kd [4] was 2.9 nM.

B11: TRL579 (antibody, V domains shown)
VH: QVQLVQSGAEVKKPGASVKVSCKTSGYTFTAYTIHWVRQAPGQRLEWMGWINAGNGHTKYSQRFKGRVTITRDTSARTTYMELRSLTSEDTALYFCARGPETYYYDKTNWLNSHPDEYFQHWGHGTQVTVSS
VL: DIQMTQSPSTLSASVGDRVTITCRASQTINNYLAWYQQKPGKAPKLLIYKASSLESGVPSRFSGSGSGTEFTLTISSLQPDDFATYYCQEYNNDSPLTFGGGTKVEIKR
Binder B11 has a Kd [9] of 0.4 nM, a koff [9] of 4e-05 s⁻¹ and a kon [9] of 100000 M⁻¹ s⁻¹. The Kd [10] was 3.9 nM, the koff [10] was 0.00064 s⁻¹ and the kon [10] was 170000 M⁻¹ s⁻¹. For the same binder, the fold reactivity over background (fold over background) [1] was 1 and the fold reactivity over background (fold over background) [2] was 25.6.

B12: TRL847 (antibody, V domains shown)
VH: QVQLVESGGGLVQPGGSLRLSCVASGFTFSRFSMNWVRQAPGMGLEWVSYISDTGRTIYYADSVKGRFTISRDNDKNTLYLQMKSLRDEDSAFYYCARDPDTPFVRAFDSWGQGVLVTVSS
VL: DIVMTQSPSFLSASVGDRVTITCRTSQVISSYLAWYQQRPGKAPKLLIYAASTLQSGVPSRFSGSGSGTRFSLTISNLQPEDFATYFCQQLTTYPPITFGQGTRLEIKR
Work on B12 yielded a fold reactivity over background (fold over background) [1] of 1.1 and a fold reactivity over background (fold over background) [2] of 1.

B13: TRL823 (antibody, V domains shown)
VH: QVQLVESGGGVVQPGGSLRLSCAASGFNFDEYVMYWVRQSPGKGLEWVSLIGADGRGTYNSDSVKGRFTISRDNRKNSLYLQMNSLRSDDTALYYCAKVERSFYDGSGYGDALEIWGQGTMVTVSS
VL: DIVMTQSPSSLSASVGDRVSITCRASQTITRFLNWYQQKPGKGPKLLIYAASTVHRGVPSRFSGSGSGTDFTLTISSLQPEDFATYYCQQSYSAPFTFGPGTTVDIRR
B13 was tested, and the Kd [3] was 0.3 nM and the Kd [4] was 2 nM.
